Assay results taken from article doi:10.1101/2020.01.12.903617, “The peptide sensor motif stabilizes the outward-facing conformation of TmrAB” (bioRxiv, 2020).
No end group written: not given here. fluorescein = fluorescein label attached to the Cys side chain

Assays:
[1] = target: T1, TmrAB D117A^TmrB (Thermus thermophilus, UniProt Q72J05 1-600; Q72J04 1-578, D117A); assay: fluorescence polarisation; 1.7 uM TmrAB with 50 nM RRY(C^Fluorescein)KSTEL in SEC buffer (20 mM HEPES, 150 mM NaCl, pH 7, 0.05% ß-DDM), 15 minutes on ice, in the absence or presence of 5 mM ATP and 10 mM MgCl2; read at 25°C (the results say 4°C); signal normalized to WT without ATP; conditions: both partners purified
T1 construct: TmrA, Thermus thermophilus, the chain of TmrAB with the canonical Walker B motif; TmrB, Thermus thermophilus, the chain of TmrAB with the non-canonical Walker B motif
T1 sequence 1: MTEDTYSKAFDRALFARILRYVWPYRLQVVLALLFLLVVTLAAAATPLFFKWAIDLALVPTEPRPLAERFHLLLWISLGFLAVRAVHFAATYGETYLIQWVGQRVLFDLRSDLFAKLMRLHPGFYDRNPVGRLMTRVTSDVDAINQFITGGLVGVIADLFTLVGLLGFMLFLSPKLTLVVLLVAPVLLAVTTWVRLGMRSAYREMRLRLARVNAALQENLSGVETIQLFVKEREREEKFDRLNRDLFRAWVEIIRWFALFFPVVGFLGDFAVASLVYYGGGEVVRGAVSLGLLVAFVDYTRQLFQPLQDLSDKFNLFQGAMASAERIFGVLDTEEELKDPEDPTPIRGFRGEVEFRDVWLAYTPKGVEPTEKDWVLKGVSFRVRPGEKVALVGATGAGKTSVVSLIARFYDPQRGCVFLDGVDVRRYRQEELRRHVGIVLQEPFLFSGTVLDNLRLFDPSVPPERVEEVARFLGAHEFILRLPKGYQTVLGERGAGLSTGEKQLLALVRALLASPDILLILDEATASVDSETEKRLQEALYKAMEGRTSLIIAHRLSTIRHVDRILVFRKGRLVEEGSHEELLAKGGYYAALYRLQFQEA
T1 sequence 2: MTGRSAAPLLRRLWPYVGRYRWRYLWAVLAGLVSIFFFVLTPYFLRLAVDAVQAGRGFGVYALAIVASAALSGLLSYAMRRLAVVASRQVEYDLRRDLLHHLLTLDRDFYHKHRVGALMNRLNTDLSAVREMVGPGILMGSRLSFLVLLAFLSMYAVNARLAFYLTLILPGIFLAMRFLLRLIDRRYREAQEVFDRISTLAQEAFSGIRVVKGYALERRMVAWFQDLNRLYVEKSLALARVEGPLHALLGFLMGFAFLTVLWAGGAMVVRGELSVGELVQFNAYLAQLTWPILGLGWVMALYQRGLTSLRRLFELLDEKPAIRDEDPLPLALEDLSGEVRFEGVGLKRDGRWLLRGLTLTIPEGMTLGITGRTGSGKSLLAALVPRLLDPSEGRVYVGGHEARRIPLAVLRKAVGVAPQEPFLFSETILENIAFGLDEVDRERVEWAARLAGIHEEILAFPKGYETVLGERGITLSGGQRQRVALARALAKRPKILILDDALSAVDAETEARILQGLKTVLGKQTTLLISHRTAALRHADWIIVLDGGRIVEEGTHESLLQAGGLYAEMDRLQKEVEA

[2] = target: T2, TmrAB D140A^TmrA (Thermus thermophilus, UniProt Q72J05 1-600; Q72J04 1-578, D140A); assay: as above; conditions: both partners purified
T2 construct: TmrA, Thermus thermophilus, the chain of TmrAB with the canonical Walker B motif; TmrB, Thermus thermophilus, the chain of TmrAB with the non-canonical Walker B motif
T2 sequence 1: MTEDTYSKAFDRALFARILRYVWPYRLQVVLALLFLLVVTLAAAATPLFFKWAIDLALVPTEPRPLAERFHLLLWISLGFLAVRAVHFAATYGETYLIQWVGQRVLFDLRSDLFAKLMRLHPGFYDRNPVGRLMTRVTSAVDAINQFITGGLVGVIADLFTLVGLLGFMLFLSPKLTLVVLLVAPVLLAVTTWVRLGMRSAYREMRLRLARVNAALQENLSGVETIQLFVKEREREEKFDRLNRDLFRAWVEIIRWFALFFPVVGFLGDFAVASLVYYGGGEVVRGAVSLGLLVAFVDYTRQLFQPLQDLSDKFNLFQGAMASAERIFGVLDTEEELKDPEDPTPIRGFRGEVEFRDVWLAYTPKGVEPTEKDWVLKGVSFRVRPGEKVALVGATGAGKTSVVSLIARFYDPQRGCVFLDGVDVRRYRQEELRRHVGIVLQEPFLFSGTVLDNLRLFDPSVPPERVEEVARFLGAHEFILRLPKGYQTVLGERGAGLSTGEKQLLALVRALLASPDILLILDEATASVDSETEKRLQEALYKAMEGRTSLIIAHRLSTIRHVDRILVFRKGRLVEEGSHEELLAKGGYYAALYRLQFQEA
T2 sequence 2: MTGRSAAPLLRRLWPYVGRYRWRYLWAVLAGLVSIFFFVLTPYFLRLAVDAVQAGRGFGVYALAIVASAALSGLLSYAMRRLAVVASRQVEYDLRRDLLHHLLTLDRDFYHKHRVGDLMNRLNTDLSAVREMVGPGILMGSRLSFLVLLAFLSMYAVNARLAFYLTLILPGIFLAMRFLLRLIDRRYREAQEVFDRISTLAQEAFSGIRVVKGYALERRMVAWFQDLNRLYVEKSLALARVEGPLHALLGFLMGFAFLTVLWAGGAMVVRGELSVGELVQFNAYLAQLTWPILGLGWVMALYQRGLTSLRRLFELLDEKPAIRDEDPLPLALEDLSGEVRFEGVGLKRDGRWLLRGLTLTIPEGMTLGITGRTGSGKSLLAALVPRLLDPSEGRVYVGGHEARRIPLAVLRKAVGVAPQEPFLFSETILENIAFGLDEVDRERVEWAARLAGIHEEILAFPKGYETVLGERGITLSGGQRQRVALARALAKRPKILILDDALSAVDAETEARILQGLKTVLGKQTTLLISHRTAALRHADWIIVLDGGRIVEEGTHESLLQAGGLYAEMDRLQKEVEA

B1: fluorescent transport substrate peptide RRY(C^Fluorescein)KSTEL (peptide)
peptide: RRYC(fluorescein)KSTEL
notes: fluorescein-labelled transport substrate peptide of TmrAB; also called fluorescently-labeled peptide substrate; peptide substrate; source: bought: Genscript
B1: binds [1]; binds [2].
